The results in this text go back to US20050130203A1, “Novel GABAB receptor DNA sequences” (Board of Regents, The University of Texas System, priority 1998, published 2005).

One series concerns the target T1, GABABR1a (Mus musculus, UniProt Q9WV18).
T1 construct: GABABR1a was expressed by subcloning full-length GABABR1a into the NheI-NotI site of pcDNA3.1 or pCIneo; expressed in transfected cells; host or cells: Xenopus laevis melanophores (transient)
Description: Xenopus melanophore pigment aggregation/dispersion assay, GABABR1a alone. In kind it is cell-based, murine. To be noted: melanophores transfected with GABABR1a alone; up to 1 mM.

The target in a further series is murine GABABR1a (murine) (UniProt Q9WV18). Description: cell-based or functional assay.
Series [1] has as its target T2, FLAG epitope-tagged HG20 receptor subunit (FLAG epitope fused to amino acids 52-941 of HG20) (human, UniProt O75899 52-941).
T2 construct: Expressed from SF-HG20/pcDNA3.1 in COS cells and melanophores, or from pT7TS cRNA in oocytes; For immunoprecipitation it was solubilized from membranes with digitonin; also called FLAG-HG20; SF-HG20
T2 sequence: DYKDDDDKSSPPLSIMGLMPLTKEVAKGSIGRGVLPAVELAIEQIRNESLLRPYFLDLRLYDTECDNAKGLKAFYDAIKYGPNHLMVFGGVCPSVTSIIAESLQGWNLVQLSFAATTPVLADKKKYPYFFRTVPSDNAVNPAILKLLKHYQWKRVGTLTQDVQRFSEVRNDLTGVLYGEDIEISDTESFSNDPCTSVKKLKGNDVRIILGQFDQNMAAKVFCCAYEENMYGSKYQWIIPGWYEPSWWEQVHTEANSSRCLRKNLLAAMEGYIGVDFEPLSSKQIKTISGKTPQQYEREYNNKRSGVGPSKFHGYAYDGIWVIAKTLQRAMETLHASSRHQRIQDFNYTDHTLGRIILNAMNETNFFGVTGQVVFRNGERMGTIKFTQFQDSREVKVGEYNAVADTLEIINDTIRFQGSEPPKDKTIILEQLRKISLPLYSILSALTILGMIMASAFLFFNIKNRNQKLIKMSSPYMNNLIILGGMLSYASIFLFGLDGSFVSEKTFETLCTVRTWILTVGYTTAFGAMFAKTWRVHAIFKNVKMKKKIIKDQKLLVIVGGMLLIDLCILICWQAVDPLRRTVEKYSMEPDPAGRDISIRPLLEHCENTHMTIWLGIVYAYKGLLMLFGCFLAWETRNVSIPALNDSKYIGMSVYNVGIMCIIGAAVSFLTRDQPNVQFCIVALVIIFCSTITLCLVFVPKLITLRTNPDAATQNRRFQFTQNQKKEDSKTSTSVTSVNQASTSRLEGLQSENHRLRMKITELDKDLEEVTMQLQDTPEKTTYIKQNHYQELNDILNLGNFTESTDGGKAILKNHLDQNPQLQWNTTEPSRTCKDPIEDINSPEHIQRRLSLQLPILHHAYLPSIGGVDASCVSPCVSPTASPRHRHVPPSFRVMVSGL
The series can be described thus: co-immunoprecipitation and immunoblot. In general terms: A western blot detects proteins with antibodies after separation by electrophoresis.

Series [2] deals with the molecule itself. The series can be described thus: [125I]CGP71872 photolabelling of COS-7 membranes, SDS-PAGE (FIG. 9).

Description for wild-type HEK293 cells: Following a 20 min incubation at 37° C., the assay was terminated by setting the cells on ice and centrifuging at 2,000 rpm for 5 min at 4° C. […] Immulon II removawells (Dynatech; Chantilly, Va.) were coated overnight with 100 μl of protein G (1 mg/ml in 0.1M NaHCO3, pH 9.0) at 4° C. Prior to use, protein G-coated plates were rinsed with PBS-gelatin-Tween (phosphate buffered saline containing 0.1% gelatin, 0.2% Tween-20) 3 times quickly, and then once for 30 minutes. […] Plates were incubated 2 hr at 37° C. or overnight at 4° C., rinsed 3 times with sodium acetate buffer, blotted dry, and then individual wells were broken off and bound radioactivity was determined in a gamma counter.

On to `O=S(=O)(O)C1CCNCC1` [piperidine-4-sulfonic acid], for which the “pigment aggregation or dispersion response” value on GABABR1a is reported as “no pigment aggregation or dispersion response”.

As to “HG20 as expressed in HEK293 cells (HG20 cDNA in pcDNA3.1) (from UniProt O75899 42-941)”, the reduction of forskolin-stimulated cAMP synthesis in HEK293 cells (hgb2-42 cells transfected with GABABR1a, GABA plus AOAA and nipecotic acid) with murine GABABR1a (murine) was determined as 43 % decrease.

Regarding “HG20 as expressed in HEK293 cells (HG20 cDNA in pcDNA3.1) (from UniProt O75899 42-941) (receptor)”, in the series with murine GABABR1a (murine), the reduction of forskolin-stimulated cAMP synthesis in HEK293 cells (hgb2-42 cells transfected with GABABR1a, baclofen) was 34 % reduction; the reduction of forskolin-stimulated cAMP synthesis in HEK293 cells (rgb1a-50 cells transfected with HG20, 30 µM GABA plus AOAA and nipecotic acid) was 40 % decrease; the reduction of forskolin-stimulated cAMP synthesis in HEK293 cells (rgb1a-50 cells transfected with HG20, 30 µM baclofen) amounted to 28 % reduction.

As to `N[C@@H](CCC(=O)O)C(=O)O` [L-Glutamate, (L)-glutamic acid], the “pigment aggregation or dispersion response” value at GABABR1a is reported as “no pigment aggregation or dispersion response”.

`NCC(CC(=O)O)c1ccc(Cl)cc1` (stereo not shown) [baclofen]: in the series with wild-type HEK293 cells, the “inhibition of forskolin-stimulated cAMP synthesis” value is reported as “did not exhibit”.

`NC/C=C\C(=O)O` [cis-4-aminocrotonic acid]: the “pigment aggregation or dispersion response” value at GABABR1a is given as “no pigment aggregation or dispersion response”.

B1: murine GABABR1a (receptor)
chain: GAQTPNVTSEGCQIIHPPWEGGIRYRGLIRDQVKAINFLPVDYEIEYVCRGEREVVGPKVRKCLANGSWTDMDTPSRCVRICSKSYLTLENGKVFLTGGDLPALDGARVDFRCDPDFHLVGSSRSICSQGQWSTPKPHCQVNRTPHSERRAVYIGALFPMSGGWPGGQACQPAVEMALEDVNSRRDILPDYELKLIHHDSKCDPGQATKYLYELLYNDPIKIILMPGCSSVSTLVAEAARMWNLIVLSYGSSSPALSNRQRFPTFFRTHPSATLHNPTRVKLFEKWGWKKIATIQQTTEVFTSTLDDLEERVKEAGIEITFRQSFFSDPAVPVKNLKRQDARIIVGLFYETEARKVFCEVYKERLFGKKYVWFLIGWYADNWFKTYDPSINCTVEEMTEAVEGHITTEIVMLNPANTRSISNMTSQEFVEKLTKRLKRHPEETGGFQEAPLAYDAIWALALALNKTSGGGGRSGVRLEDFNYNNQTITDQIYRAMNSSSFEGVSGHVVFDASGSRMAWTLIEQLQGGSYKKIGYYDSTKDDLSWSKTDKWIGGSPPADQTLVIKTFRFLSQKLFISVSVLSSLGIVLAVVCLSFNIYNSHARYIQNSQPNLNNLTAVGCSLALAVVFPLGLDGYHIGRSQFPFVCQARLWLLGLGFSLGYGSMFTKIWWVHTVFTKKEEKKEWRKTLEPWKLYATVGLLVGMDVLTLAIWQIVDPLHRTIETFAKEEPKEDIDVSILPQLEHCSSKKMNTWLGIFYGYKGLLLLLGIFLAYETKSVSTEKINDHRAVGMAIYNVAVLCLITAPVTMILSSQQDAAFAFASLAIVFSSYITLVVLFVPKMRRLITRGEWQSETQDTMKTGSSTNNNEEEKSRLLEKENRELEKIIAEKEERVSELRHQLQSRQQLRSRRHPPTPPDPSGGLPRGPSEPPDRLSCDGSRVHLLYK
notes: Full-length cDNA was expressed in COS-7 cells, HEK293 cells, melanophores and oocytes; also called mgb1a; gb1a
Consider B1, for which the binding result in series [1] and in series [2] was “binds” each time.
